In patent US20250011391A1, “ULTRA LIGHT-SENSITIVE NEUROPSIN-BASED OPTOGENETIC TOOL FOR ACTIVATING G q-COUPLED SIGNALING AND/OR ACTIVATING CELLS” (GENANS BIOTECHNOLOGY CO., LTD, priority 2021, published 2025):

Columns and labels:
[1] = test system: primary astrocyte cultures; test: Light-induced Ca2+ transients in cOpn5-expressing primary astrocyte cultures; format: cell-based, mouse; details: cOpn5-expressing astrocytes; Calbryte 630 AM
Excerpt: cOpn5 optogenetics allows spatially precise control of cellular activity. Restricting brief light stimulation (63 ms) into a subcellular region of individual cOpn5-expressing HEK 293T cell results in the immediate activation of single cell. […] The findings are extended into primary cell cultures. cOpn5 is expressed in primary astrocyte cultures prepared from the neonatal mouse brain with AAV vectors for bicistronic expression of cOpn5 and the EGFP marker protein (FIG. 5a). […] If the light stimulation (63 ms) is precisely restricted to only subcellular region of an individual cOpn5-expressing astrocyte, Ca^2+ signal propagation within the individual cell is observed (FIG. 3f). Resembling the tests in HEK 293T cells, wave-like propagation of Ca^2+ signals from the stimulated astrocyte that proceeded gradually to more distal, non-stimulated, astrocytes is observed (FIG. 3g, h).
a, cOpn5 was expressed in cultured primary astrocytes using AAV-cOpn5-T2A-EGFP (green). Astrocyte identity was confirmed by GFAP immunostaining (red). Scale bar, 20 μm.
b, Pseudocolor images of the baseline and peak Ca^2+ signals following light stimulation of cOpn5-expressing astrocytes. Scale bar, 20 μm.
c, Plot of Ca^2+ signals and heat map representation of Ca^2+ signals across trials (n=25 cells).

[2] = test system: MARCKS protein, a well-established target of PKC; test: Phosphorylation of MARCKS in cOpn5-expressing HEK 293T cells; format: cell-based; details: normalized to α-tubulin; PKC activity-dependent
Method: (§1) Whether heterologous expression of the Opn5 orthologs from chicken, turtles, humans and mice (which share 80-90% protein sequence identity) have the capacity to mediate blue light-induced Gq signaling activation within HEK 293T cells is tested (FIG. 1a and table 7). Blue light for stimulation and the red intracellular calcium indicator Calbryte™ 630 AM dye are used to monitor the relative Ca^2+ response (FIG. 1b).
g, Phosphorylation of MARCKS in cOpn5-expressing HEK 293T cells in the control group (no light stimulation), the light stimulation group, and light+staurosporine (ST, PKC inhibitor) group. The amount of p-MARCKS in the same fraction was normalized to the amount of α-tubulin. **P=0.0096, ***P=0.0004; Tukey's multiple comparisons test.
e, One representative of phosphorylation of MARCKS in cOpn5-expressing HEK 293T cells in the control group (no light stimulation), the light stimulation group, and light+staurosporine group. The amount of p-MARCKS in the same fraction was normalized to the amount of α-tubulin.

mouse cortical neurons = test: Ca2+ imaging (jRGECO1a) of cOpn5-expressing neurons in brain slice preparations; format: cell-based; details: 10 s; 100 μW/mm2; 473 nm
Excerpt: The application of cOpn5-mediated optogenetics in neurons is explored. Whether cOpn5 could mediate light-induced Ca^2+ signals is firstly examined. Using AAV and the pan-neuronal SYN promoter, cOpn5 and the genetically-encoded Ca^2+ sensor jRGECOla are expressed in mouse cortical neurons (FIG. 8a). […] Thus, cOpn5 also enables light-induced activation in neurons.
b, Pseudocolor images show Ca^2+ signals before and after light stimulation (10 s; 100 μW/mm2; 473 nm). Scale bar, 10 μm.

[3] = test system: Gq signaling in HEK 293T cells; test: IP1 accumulation in Opn5-expressing HEK 293T cells; format: cell-based; details: continuous light 3 min; 100 μW/mm2; 470 nm
Method: as §1
f, YM suppressed the IP1 accumulation evoked by continuous light stimulation (3 min; 100 μW/mm^2; 470 nm) in cOpn5-expressing HEK 293T cells (Left). ***P<0.0001, *P=0.0128; Tukey's multiple comparisons test.

[4] = test system: LH GABAergic neurons of VGAT-Cre mice; test: Optogenetics and food intake assay; format: in vivo, mouse; details: 20 Hz; 5 ms/pulse; 473 nm; 0.75 mW; vs EGFP-expressing control mice
Method: Finally, the utility of cOpn5-mediated optogenetics for modulating animal behavior is assessed. The lateral hypothalamus (LH) is a brain center with known functions in reward processing and feeding behaviors^54,55. cOpn5 is expressed in the LH GABAergic neurons of VGAT-Cre mice and implanted optical fibers to deliver light pulses into the LH of freely behaving mice (FIG. 8g). […] Electrophysiological recordings on LH and ZI cOpn5-expressing neurons are performed to characterize the response profiles. The injection sites and placement of optical fibers are confirmed by whole brain slices (FIG. 10a-c). […] Thus, cOpn5 is effective for rapidly, accurately, and reversibly modulating animal behavioral states.
g, Schematic diagram of the experimental setup for optogenetics and food intake assay. cOpn5-EGFP was expressed in GABAergic neurons within the lateral hypothalamus (LH) of VGAT-Cre mice. EGFP was expressed as a control.
h, Summary of light-induced (20 Hz; 5 ms/pulse; 473 nm; 0.75 mW output from the fiber tip), cOpn5-mediated activation of eating behaviors. ***P=0.0003; n.s., non-significant; n=6 mice; unpaired t test. Error bars indicate S.E.M.

Gi signaling = test: cAMP levels in Opn5-expressing HEK 293T cells after photostimulation; format: cell-based; details: without additional retinal; 10 μM forskolin preincubation
Method: as §1
f, Light has no effect on cAMP levels (10 μM forskolin preincubation) in cOpn5-expressing HEK 293T cells without additional retinal in the medium (left panel).

[5] = test system: neurons in slice preparations of the motor cortex, hippocampus, and dorsal striatum; test: Whole-cell patch-clamp recording of cOpn5-expressing neurons in slices; format: cell-based, mouse
Excerpt: The effect of light-induced cOpn5 activation on the electrophysiological properties of neurons in slice preparations of the motor cortex, hippocampus, and dorsal striatum is next investigated (FIG. 8d). Two types of activation patterns are observed. In a majority of recorded neurons, blue light pulses induce a small depolarizing current (˜20 pA) in the voltage-clamp mode, and induce delayed-yet-vigorous firing of action potentials in the current-clamp mode (FIG. 8e, left, n=12 neurons). […] In the other subset of neurons, brief light pulses rapidly evoked strong inward currents (100-1000 pA) and drove bursting firing of action potentials (FIG. 8e, right, n=6 neurons). […] Of note, unlike generated by ChR2 optogenetics^53, the action potential evoked by cOpn5 photostimulation is not time-locked to light pulses.
d, Schematic diagram depicts optogenetic stimulation and whole-cell patch-clamp recording of cOpn5-expressing neurons in the cortex, striatum and hippocampus.

B1: cOpn5: Chicken (Gallus gallus) Opn5 (neuropsin) ortholog, SEQ ID NO:1, GenBank NM_001130743.1 (protein, listed as Gallus lafayetii)
chain: MSGMASDCNSSSQEEYLPHYVQQEDPFASKLSREADIIAGFYLTVIGILSTLGNGYVIFMSSKRKKKLRPAEIMTVNLAVCDLGISVVGKPFSIISFFSHRWIFGWMGCRWYGWAGFFFGCGSLITMTAVSLDRYLKICHLAYGTWLKRHHAFICLALIWAYATFWATVPFAGVGSYAPEPFGTSCTLDWWLAQASVAGQAFVLSILFFCLLFPTAVIVFSYVKIILKVKSSTKEVAHYDTRIQNSHILEMKLTKVAMLICAGFLIAWIPYAVVSVWSAFGQPDSVPIQFSVVPTLLAKSAAMYNPIIYQVIDCKFACCRSGGPKTLQKKSSLKESRMYTLSSHRDSAALSGTQLEV
Ca2+ transients on blue light illumination [1]: ~8 ΔF/F | blue light-triggered phosphorylation of MARCKS protein [2]: triggers the phosphorylation of MARCKS protein | Ca2+ transients in neurons on blue light pulses (mouse cortical neurons): reliably evokes Ca^2+ transients | light-induced increase in the level of inositol phosphate (IP1) [3]: light-induced increase | food intake on light stimulation [4]: significant increase in food intake | effect of light on cAMP levels (Gi signaling): has no such effect | firing rate of neurons after pulsed 473 nm light stimulation ([5]; 1 Hz, 5 s, n=18): increased | firing rate across repetitive trials of light stimulation ([5]; 10 ms/pulse at 10 Hz): non-attenuated | spike latency after the initial light pulse, higher frequencies of light pulses ([5]; majority-type neurons): ~3 s | spike latency after the initial light pulse, lower frequency of light pulses ([5]; majority-type neurons): ~5 s | inward currents evoked by brief light pulses ([5]; other subset of neurons (n=6)): 100-1000 pA | depolarizing current induced by blue light pulses ([5]; voltage-clamp, majority of recorded neurons (n=12)): ~20 pA
